The values below come from article PMC11515973, “8-Oxoguanine DNA Glycosylase1 conceals oxidized guanine in nucleoprotein-associated RNA of respiratory syncytial virus”.

The target of this data set is OGG1 (ENZ-253, ProSpec) (UniProt O15527 1-345). Description: EMSA. As to conditions: protein: commercial, label: Cy5. (In general: A gel shift assay detects complexes by their altered migration in electrophoresis.)
OGG1 (ENZ-253, ProSpec), sequence (O15527 whole entry): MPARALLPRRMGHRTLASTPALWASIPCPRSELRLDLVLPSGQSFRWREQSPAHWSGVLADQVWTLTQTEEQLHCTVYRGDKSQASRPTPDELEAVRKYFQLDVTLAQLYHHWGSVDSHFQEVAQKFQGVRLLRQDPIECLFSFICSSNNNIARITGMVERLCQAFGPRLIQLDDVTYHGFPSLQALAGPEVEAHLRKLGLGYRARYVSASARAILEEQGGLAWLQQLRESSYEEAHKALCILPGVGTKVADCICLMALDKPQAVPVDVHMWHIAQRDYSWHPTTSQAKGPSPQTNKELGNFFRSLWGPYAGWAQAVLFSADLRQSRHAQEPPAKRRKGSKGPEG

Turning to GGGGCAAAUGCAAACAUGUCCAAAAACAAGGACCAACGCA (structured_RNA, single 8-oxoguanine at the end of GGGG) [8oxo-rG, undenatured], the binding result (predicted secondary structure) is listed as “binds”.

B1: 8oxo-rG:rC (dsRNA)
RNA 1: GGGGCAAAUGCAAACAUGUCCAAAAACAAGGACCAACGCA
RNA 2: UGCGUUGGUCCUUGUUUUUGGACAUGUUUGCAUUUGCCCC
modifications: single 8-oxoguanine at the end of GGGG
In the case of B1, the binding result (annealed duplex) is listed as “binds”.
